Literature values in PMC9917595.
pKd: −log10 of the molar value.

Target: Endothelin-1 (Homo sapiens) (UniProt P05305)
Settings: cited from earlier work

Chain of UniProt P05305 (P05305 53-73): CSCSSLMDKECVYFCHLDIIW

## Endothelin B receptor (from UniProt P24530)
  pKd: 10.54
